In patent publication US20220406376A1 (MacroGenics, published 2022):
Changes are numbered by the printed parent chain. Numbers in names are those of the source.

B1: hCD137 MAB-3 (1E.15) (antibody, V domains shown)
VH: QVQLVQSGAEVKKPGASVKVSCKASGYTFTSYWINWVRQAPGQGLEWIGNIYPSDSYTNYNQKFKDKATITADKSTSTAYMELSSLRSEDTAVYYCTRDYGSAYSMSTWGQGTTVTVSS
VL: DIQMTQSPSSLSASVGDRVTITCQASQDISNYLNWYQQKPDKTVKLLIYYTGRARSGVPSRFSGSGSGTDFTFTISSLQPEDIATYFCQQGDTLPYTFGQGTKLEIK
B2: hCD137 MAB-4 (1.1) (antibody, V domains shown)
VH: QVQLVQSGAEVKKPGASVKVSCKASGYTFTSYWINWVRQAPGQGLEWMGNIYPSDSYTNYDQKFKDRVTMTRDTSTSTVYMELSSLRSEDTAVYYCTKSGEYGKIGYYAMDYWGQGTTVTVSS
VL: B1 VL with Q24R, G52S, A54L, R55H, F71Y, F73L, D92N
notes: also called chCD137 MAB-4 (1.1)
B3: hCD137 MAB-3 (1G.15) (antibody, V domains shown)
VH: B1 VH with I48A
VL: B1 VL
B4: hCD137 MAB-4 (1.2) (antibody, V domains shown)
VH: B2 VH
VL: B1 VL with Q24R, G52S, A54L, R55H, F71Y, F73L, F87Y, D92N
notes: also called chCD137 MAB-4 (1.2)
B5: hCD137 MAB-3 VH1B with VL12 (I48A/S52T) (antibody, V domains shown)
VH: B1 VH with R38K
VL: B1 VL with Q24R, A25P, I48A, G52T, A54L

What was measured:
[1] = molecular target: T1, CD137 on the surface of cells (activated human T cells; engineered CHO cells) (human, UniProt Q07011 24-255); assay: flow cytometry on activated pan T cells gated CD8+ (donor D43867), anti-hFc APC MFI
T1 construct: whole, on cells; also called human CD137; cell surface expressed CD137
T1 sequence (Q07011 24-255, change not shown): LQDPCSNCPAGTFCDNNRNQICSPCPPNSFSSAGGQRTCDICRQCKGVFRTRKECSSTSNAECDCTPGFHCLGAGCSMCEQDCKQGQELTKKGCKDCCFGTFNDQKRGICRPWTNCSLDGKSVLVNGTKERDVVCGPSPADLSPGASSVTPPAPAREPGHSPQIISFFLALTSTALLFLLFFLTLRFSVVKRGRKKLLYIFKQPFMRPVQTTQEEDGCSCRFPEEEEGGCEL
Experimental: (§1) Three antibodies were selected for further study. For such evaluations, purified pan T-cells (see above) were stimulated with anti-CD3/CD28 beads (cells:beads=1:1) for 72 hours in the presence of IL-2 (100 U/mL). 100 μL of activated T cells (1.0×10⁶ cells/mL) and 100 μL of serially diluted (5- or 10-fold dilutions) test article (antibody or bispecific diabody) was added to each well of microtiter assay plate(s), mixed and incubated at RT for 45 min. The cells were washed with FACS Buffer and secondary antibody (anti-human-Fc region-APC) was then added to each well; mixed and incubated at RT for 30 min. Cells were then washed FACS Buffer and T cell surface marker antibodies (anti-CD4 labeled with V510, and anti-CD8 labeled with FITC) were then added to each well; mixed and incubated at RT for 30 min. Cells were washed and resuspended in 100 μL FACS Buffer and analyzed by flow cytometry (BD LSR Fortessa or FACSCanto 11) for cell event collection. Data analysis were performed via FloJo v10.

[2] = molecular target: T1, CD137 on the surface of cells …; assay: flow cytometry on activated pan T cells gated CD4+ (donor D43867), anti-hFc APC MFI
Experimental: as §1

[3] = molecular target: T2, extracellular portion of human CD137 fused to a histidine-containing peptide (human, UniProt Q07011 24-186); assay: SPR (BIACORE); antibody captured on anti-human Fc; huCD137 25 and 100 nM; 1:1 Langmuir
T2 construct: extracellular domain; also called huCD137; His-tagged soluble human CD137
Experimental: (§2) Thus, an extracellular portion of human CD137 fused to a histidine-containing peptide (“huCD137”) was passed over a surface coated with immobilized antibody. Briefly, each test molecule was captured onto an F(ab)₂ goat-anti-human Fc-coated surface and then incubated in the presence of different concentrations (25 nM and 100 nM) of huCD137. The kinetics of binding were determined via BIACORE® analysis binding (normalized 1:1 Langmuir binding model).

[4] = molecular target: T2, extracellular portion of human CD137 …; assay: SPR (BIACORE), against chCD137 MAB-4
Experimental: as §2

[5] = molecular target: T2, extracellular portion of human CD137 …; assay: Attana Cell A200 QCM; antibody captured by anti-human IgG Fc; soluble human CD137-His; grade relative to (1B.3); row with VL12

Binder	EC50 (read off the curve) [1] [ng/mL]	EC50 (read off the curve) [2] [ng/mL]	Kd [3] [nM]	koff [3] [s⁻¹]	kon [3] [M⁻¹ s⁻¹]	fold decrease in binding affinity relative to the murine antibodies [4] [fold]	binding result [5]
B1	~5	~6					
B2			16.2	0.0021	130000	~2	
B3	~8	~10					
B4			13.6	0.0019	140000	~2	
B5							binds
